Results reported in patent US20230235013A1 (MABSOLVE, published 2023).

T1: mouse FcγRI (Sino Biological Cat. No. 50086-M08H) (mouse, UniProt P26151 25-297)
T1 construct: bought
T1 sequence (looked up): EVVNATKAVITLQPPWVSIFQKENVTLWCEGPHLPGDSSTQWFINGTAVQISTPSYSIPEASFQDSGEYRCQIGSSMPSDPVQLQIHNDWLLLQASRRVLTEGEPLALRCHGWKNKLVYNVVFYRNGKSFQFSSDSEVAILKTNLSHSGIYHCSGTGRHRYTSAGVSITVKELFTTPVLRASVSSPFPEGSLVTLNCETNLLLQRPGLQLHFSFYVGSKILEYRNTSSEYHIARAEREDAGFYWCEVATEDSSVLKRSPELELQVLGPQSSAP

T2: human FcγRIIA (R131, Sino Biological Cat. No. 10374-H08H) (human, UniProt P12318 34-218)
T2 construct: bought; also called human FcγRIIa R131 allele; FcγRII allele R131
T2 sequence (looked up): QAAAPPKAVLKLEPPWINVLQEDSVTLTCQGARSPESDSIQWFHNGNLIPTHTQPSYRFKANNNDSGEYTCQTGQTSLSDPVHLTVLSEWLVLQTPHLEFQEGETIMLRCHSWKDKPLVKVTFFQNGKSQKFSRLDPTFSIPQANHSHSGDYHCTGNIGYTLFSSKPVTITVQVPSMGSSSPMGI

T3: human FcγRIIB (Sino Biological Cat. No. 10259-H08H) (human, UniProt P31994 43-217)
T3 construct: bought
T3 sequence (looked up): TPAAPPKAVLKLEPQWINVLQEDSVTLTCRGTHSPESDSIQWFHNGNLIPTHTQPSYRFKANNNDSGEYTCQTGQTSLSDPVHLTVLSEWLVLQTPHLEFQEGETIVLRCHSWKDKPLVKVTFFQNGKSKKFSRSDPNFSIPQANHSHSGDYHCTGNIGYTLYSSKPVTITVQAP

T4: mouse FcRn (Sino Biological Cat. No. CT029-M08H) (mouse, UniProt Q61559 22-297; P01887 21-119)
T4 construct: Bought protein, captured on an anti-histidine chip
T4 sequence (looked up): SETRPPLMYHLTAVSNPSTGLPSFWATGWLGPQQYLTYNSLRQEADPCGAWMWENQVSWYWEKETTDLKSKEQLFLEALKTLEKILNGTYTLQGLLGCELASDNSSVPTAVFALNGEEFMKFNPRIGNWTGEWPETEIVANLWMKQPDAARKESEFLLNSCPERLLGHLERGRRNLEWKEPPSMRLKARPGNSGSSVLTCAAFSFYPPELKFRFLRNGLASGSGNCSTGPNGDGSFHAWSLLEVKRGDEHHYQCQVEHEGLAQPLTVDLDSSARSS
T4 sequence (b2m, looked up): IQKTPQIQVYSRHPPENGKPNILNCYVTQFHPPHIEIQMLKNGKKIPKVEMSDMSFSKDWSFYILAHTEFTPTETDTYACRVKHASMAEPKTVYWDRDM


Legend:
[1] = target: T5, Histidine-tagged recombinant human FcγRI (CD64) (human, UniProt P12314 16-288); assay: SPR, captured His-receptor
T5 construct: bought; also called Sino Biological Cat. No. 12056-H08H

[2] = target: T1, mouse FcγRI (Sino Biological Cat. No. …); assay: SPR, captured His-receptor
[3] = target: T2, human FcγRIIA (R131, Sino Biological …); assay: SPR, captured His-receptor
[4] = target: T3, human FcγRIIB (Sino Biological Cat. No. …); assay: SPR, captured His-receptor
[5] = target: T6, human FcγRIIIB (NA2 allotype, Sino Biological Cat. No. 11046-H08H) (human, UniProt O75015 17-200); assay: SPR, captured His-receptor
T6 construct: bought; also called human FcγRIIIb NA2 allele

[6] = target: T7, CD3D/CD3E heterodimer (Sino Biologicals Cat. No. CT038-H2508H) (human, UniProt P04234 22-105; P07766 23-126); assay: ELISA, antigen coated, antibody 5 µg/mL
T7 construct: bought; also called CD3 antigen; human CD3

[7] = target: T8, human FcRn (R&D Systems Cat. No. 8639-Fc) (human, UniProt P55899 24-297; P61769 21-119); assay: SPR, FcRn captured; Mean
[8] = target: T8, human FcRn (R&D Systems Cat. No. …); assay: SPR, FcRn captured; Expt 1
[9] = target: T8, human FcRn (R&D Systems Cat. No. …); assay: SPR, FcRn captured; Expt 2
[10] = target: T8, human FcRn (R&D Systems Cat. No. …); assay: SPR, FcRn captured; Expt 3
[11] = target: T8, human FcRn (R&D Systems Cat. No. …); assay: SPR, FcRn captured via anti-His, pH 6.0;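 further: SPR binding signal relative to the reference cell, corrected by subtracting the response of a blank sample of running buffer alone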
[12] = target: T9, cynomolgus monkey FcRn (Sino Biological Cat. No. CT031-C08H) (cynomolgus monkey, UniProt Q8SPV9 24-297; Q8SPW0 21-119); assay: SPR, FcRn captured via anti-His, pH 6.0;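 further: SPR binding signal relative to the reference cell, corrected by subtracting the response of a blank sample of running buffer alone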
T9 construct: Bought protein, captured on an anti-histidine chip; also called cynomolgus FcRn

[13] = target: T4, mouse FcRn (Sino Biological Cat. No. …); assay: SPR, FcRn captured via anti-His, pH 6.0;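 further: SPR binding signal relative to the reference cell, corrected by subtracting the response of a blank sample of running buffer alone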
[14] = target: T10, Human C1q (Sigma Cat. No. 20476), HRP-labelled (human, UniProt P02745 23-245; P02746 28-253; P02747 29-245); assay: ELISA, antibody coated, HRP-C1q; Expt 1, buffer alone 0.061
T10 construct: Coupled to horse-radish peroxidase with Lightning-Link kit; also called HRP-labelled C1q

[15] = target: T10, Human C1q (Sigma Cat. No. 20476), …; assay: ELISA, antibody coated, HRP-C1q; Expt 2, buffer alone 0.091
[16] = target: T10, Human C1q (Sigma Cat. No. 20476), …; assay: ELISA, antibody coated, HRP-C1q; Expt 3, buffer alone 0.102
[17] = target: T10, Human C1q (Sigma Cat. No. 20476), …; assay: ELISA, antibody coated, HRP-C1q; Expt 1, buffer alone 0.053
[18] = target: T10, Human C1q (Sigma Cat. No. 20476), …; assay: ELISA, antibody coated, HRP-C1q; Expt 2, buffer alone 0.051
[19] = target: T11, C-terminus biotinylated human FcRn attached to Streptavidin-SmBiT (FcRn-SAv-SmBiT) (human, UniProt P55899 24-297; P61769 21-119, limits assumed, C-terminus biotinylated (AviTag), attached to Streptavidin-SmBiT); assay: NanoBiT FcRn competition immunoassay, competitor Tracer-LgBiT human IgG, pH 6.0
T11 construct: Kit reagent; also called hFcRn-AviTag

Binder | binding result [1] | binding result [2] | binding result [3] | binding result [4] | binding result [5] | Mean Absorbance [6] [absorbance] | Corrected and normalised response (% of wild-type reference) [7] | Corrected and normalised response (% of wild-type reference) [8] | Corrected and normalised response (% of wild-type reference) [9] | Corrected and normalised response (% of wild-type reference) [10] | Corrected response (RU) [11] [RU] | Corrected response (RU) [12] [RU] | Corrected response (RU) [13] [RU] | Mean Absorbance [14] | Mean Absorbance [15] | Mean Absorbance [16] | Mean Absorbance [17] | Mean Absorbance [18] | Mean binding activity (% of wild-type reference) [19]
anti-CD3 human IgG1 L234S/L235T/G236R (antibody, also called 3-52; copies: 2 + 2) heavy: not shown light: QIVLTQSPAIMSASPGEKVTMTCSASSSVSYMNWYQQKSGTSPKRWIYDTSKLASGVPAHFRGSGSGTSYSLTISGMEAEDAATYYCQQWSSNPFTFGSGTKLEIKRTVAAPSVFIFPPSDEQLKSGTASVVCLLNNFYPREAKVQWKVDNALQSGNSQESVTEQDSKDSTYSLSSTLTLSKADYEKHKVYACEVTHQGLSSPVTKSFNRGEC | no binding (tested: 100 µg/mL) | no binding (tested: 100 µg/mL) | no binding (tested: 100 µg/mL) | no binding (tested: 100 µg/mL) | no binding (tested: 100 µg/mL) | 1.38 |  |  |  |  |  |  |  |  |  |  |  |  | 
anti-CD3 human IgG1 L234A/L235A/P329G (LALAPG reference) (antibody, also called 3-66; copies: 2 + 2) heavy: not shown light: QIVLTQSPAIMSASPGEKVTMTCSASSSVSYMNWYQQKSGTSPKRWIYDTSKLASGVPAHFRGSGSGTSYSLTISGMEAEDAATYYCQQWSSNPFTFGSGTKLEIKRTVAAPSVFIFPPSDEQLKSGTASVVCLLNNFYPREAKVQWKVDNALQSGNSQESVTEQDSKDSTYSLSSTLTLSKADYEKHKVYACEVTHQGLSSPVTKSFNRGEC | binds |  |  |  |  | 1.13 |  |  |  |  |  |  |  |  |  |  |  |  | 
anti-CD3 human IgG1 L234A/L235A (LALA) (antibody, also called 3-65; copies: 2 + 2) heavy: not shown light: QIVLTQSPAIMSASPGEKVTMTCSASSSVSYMNWYQQKSGTSPKRWIYDTSKLASGVPAHFRGSGSGTSYSLTISGMEAEDAATYYCQQWSSNPFTFGSGTKLEIKRTVAAPSVFIFPPSDEQLKSGTASVVCLLNNFYPREAKVQWKVDNALQSGNSQESVTEQDSKDSTYSLSSTLTLSKADYEKHKVYACEVTHQGLSSPVTKSFNRGEC | binds |  | binds |  |  | 1.07 |  |  |  |  |  |  |  |  |  |  |  |  | 
anti-CD3 human IgG1 N297Q (aglycosyl) (antibody, also called 3-67; copies: 2 + 2) heavy: not shown light: QIVLTQSPAIMSASPGEKVTMTCSASSSVSYMNWYQQKSGTSPKRWIYDTSKLASGVPAHFRGSGSGTSYSLTISGMEAEDAATYYCQQWSSNPFTFGSGTKLEIKRTVAAPSVFIFPPSDEQLKSGTASVVCLLNNFYPREAKVQWKVDNALQSGNSQESVTEQDSKDSTYSLSSTLTLSKADYEKHKVYACEVTHQGLSSPVTKSFNRGEC | binds | binds |  |  |  | 0.749 |  |  |  |  |  |  |  |  |  |  |  |  | 
anti-CD20 (rituximab) human IgG1 wild-type reference (antibody, 2-1 and 10.0 are separate preparations of the same antibody; also called 2-1; 10.0; copies: 2 + 2) heavy: not shown light: QIVLSQSPAILSASPGEKVTMTCRASSSVSYIHWFQQKPGSSPKPWIYATSNLASGVPVRFSGSGSGTSYSLTISRVEAEDAATYYCQQWTSNPPTFGGGTKLEIKRTVAAPSVFIFPPSDEQLKSGTASVVCLLNNFYPREAKVQWKVDNALQSGNSQESVTEQDSKDSTYSLSSTLTLSKADYEKHKVYACEVTHQGLSSPVTKSFNRGEC |  |  |  |  |  |  | 100 % of wild-type reference | 100 % of wild-type reference | 100 % of wild-type reference | 100 % of wild-type reference | 582 | 1320 | 178 | 2.63 absorbance (450 nm) | 2.21 absorbance (450 nm) | 1.88 absorbance (450 nm) | 1.83 absorbance (450 nm) | 1.33 absorbance (450 nm) | 100 % of wild-type reference
anti-CD20 (rituximab) human IgG1 L234A/L235A (LALA) (antibody, EU numbering; also called 2-65; 10.16; copies: 2 + 2) heavy: not shown light: QIVLSQSPAILSASPGEKVTMTCRASSSVSYIHWFQQKPGSSPKPWIYATSNLASGVPVRFSGSGSGTSYSLTISRVEAEDAATYYCQQWTSNPPTFGGGTKLEIKRTVAAPSVFIFPPSDEQLKSGTASVVCLLNNFYPREAKVQWKVDNALQSGNSQESVTEQDSKDSTYSLSSTLTLSKADYEKHKVYACEVTHQGLSSPVTKSFNRGEC |  |  |  |  |  |  | 93.3 % of wild-type reference | 92.8 % of wild-type reference | 94.2 % of wild-type reference | 92.9 % of wild-type reference | 505 | 1180 | 190 |  | 0.078 absorbance (450 nm) | 0.08 absorbance (450 nm) |  |  | 70.1 % of wild-type reference
anti-CD20 (rituximab) human IgG1 N297Q (aglycosyl) (antibody, EU numbering; also called 2-67; copies: 2 + 2) heavy: not shown light: QIVLSQSPAILSASPGEKVTMTCRASSSVSYIHWFQQKPGSSPKPWIYATSNLASGVPVRFSGSGSGTSYSLTISRVEAEDAATYYCQQWTSNPPTFGGGTKLEIKRTVAAPSVFIFPPSDEQLKSGTASVVCLLNNFYPREAKVQWKVDNALQSGNSQESVTEQDSKDSTYSLSSTLTLSKADYEKHKVYACEVTHQGLSSPVTKSFNRGEC |  |  |  |  |  |  | 77.9 % of wild-type reference | 78.4 % of wild-type reference | 78.7 % of wild-type reference | 76.6 % of wild-type reference | 421 | 1010 | 163 |  | 0.076 absorbance (450 nm) | 0.083 absorbance (450 nm) |  |  | 34.1 % of wild-type reference
